Test results: patent US20140302123A1

What was measured:
[1] = target: T1, PTPN4-PDZ (residues G499-N604) (human), P29074; test: NMR titration, 15N-labeled PTPN4-PDZ with unlabeled peptide
T1 chain: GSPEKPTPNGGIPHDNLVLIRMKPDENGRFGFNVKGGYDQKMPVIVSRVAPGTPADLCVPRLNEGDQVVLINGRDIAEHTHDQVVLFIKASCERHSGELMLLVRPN

[2] = target: T1, PTPN4-PDZ (residues G499-N604) (human), …; test: NMR titration

| Binder | Kd [1] [µM] | fold increase in affinity against Cyto13-att [2] [fold] |
| --- | --- | --- |
| SWESYRSGGEIRL (modifications not checked) [EIRL-13] | 1170 |  |
| SNRRVYKKMPSIESDV (modifications not checked) [GluN2A-16] | 42 | 4 |
| LNLGNDPDRGTSI (modifications not checked) [GluD2-13] | 128 |  |
